# Measurements from patent US20250032632A1 (published 2025).
# Numbering of substitutions follows the chain as printed.
# B1: hD12-II (Antibody hD12 attached to the payload of chemical formula II, stochastic conjugation) (antibody, human IgG2, kappa)
# heavy: QVQLVQSGAEVKKPGASVKVSCKASGYTFTSYWMHWVKQAPGQGLDWIGYIKPSTDNTEYNQKFKDKATLTADKSTSTAYMELSSLRSEDTAVYYCARSYGNYPLMDYWGQGTTVTVSSASTKGPSVFPLAPCSRSTSESTAALGCLVKDYFPEPVTVSWNSGALTSGVHTFPAVLQSSGLYSLSSVVTVPSSNFGTQTYTCNVDHKPSNTKVDKTVERKCCVECPPCPAPPVAGPSVFLFPPKPKDTLMISRTPEVTCVVVDVSHEDPEVQFNWYVDGVEVHNAKTKPREEQFNSTFRVVSVLTVVHQDWLNGKEYKCKVSNKGLPAPIEKTISKTKGQPREPQVYTLPPSREEMTKNQVSLTCLVKGFYPSDIAVEWESNGQPENNYKTTPPMLDSDGSFFLYSKLTVDKSRWQQGNVFSCSVMHEALHNHYTQKSLSLSPGK
# light: QIVLTQSPAILSLSPGERATLSCSASSSVTSNYLYWYQQKPGSSPKLLIYSTSNLASGVPARFSGSGSGTSYTLTISSLEAEDAASYFCHQWSSYPPTFGSGTKLEIKRTVAAPSVFIFPPSDEQLKSGTASVVCLLNNFYPREAKVQWKVDNALQSGNSQESVTEQDSKDSTYSLSSTLTLSKADYEKHKVYACEVTHQGLSSPVTKSFNRGEC
# modifications: payload of chemical formula II on one or more cysteine residues of the antibody at random positions (chain not stated); payload of chemical formula II (pyrrolobenzodiazepine toxin + linking group, maleimide) on one or more cysteine residues of the antibody at random positions
# notes: also called hD12-vc-II
# B2: hD12-VI (Antibody hD12 attached to the payload of chemical formula VI, stochastic conjugation) (antibody, human IgG2, kappa)
# heavy: B1 heavy
# light: B1 light
# modifications: payload of chemical formula VI on one or more cysteine residues of the antibody at random positions (chain not stated); payload of chemical formula VI (pyrrolobenzodiazepine toxin + linking group, maleimide) on one or more cysteine residues of the antibody at random positions
# notes: Antibody-drug conjugate; also called hD12-vc-VI
# B3: hD12-VII (Antibody hD12 attached to the payload of chemical formula VII, stochastic conjugation) (antibody, human IgG2, kappa)
# heavy: B1 heavy
# light: B1 light
# modifications: payload of chemical formula VII on one or more cysteine residues of the antibody at random positions (chain not stated); payload of chemical formula VII (pyrrolobenzodiazepine toxin + linking group, maleimide) on one or more cysteine residues of the antibody at random positions
# notes: Antibody-drug conjugate; also called hD12-vc-VII
# B4: hD12-IV (Antibody hD12 attached to the payload of chemical formula IV, stochastic conjugation) (antibody, human IgG2, kappa)
# heavy: B1 heavy
# light: B1 light
# modifications: payload of chemical formula IV on one or more cysteine residues of the antibody at random positions (chain not stated); payload of chemical formula IV (pyrrolobenzodiazepine toxin + linking group, maleimide) on one or more cysteine residues of the antibody at random positions
# notes: Antibody-drug conjugate; also called hD12-vc-IV
# B5: hD12-XI (Antibody hD12 attached to the payload of chemical formula XI, stochastic conjugation) (antibody, human IgG2, kappa)
# heavy: B1 heavy
# light: B1 light
# modifications: payload of chemical formula XI on one or more cysteine residues of the antibody at random positions (chain not stated); payload of chemical formula XI (pyrrolobenzodiazepine toxin + linking group, maleimide) on one or more cysteine residues of the antibody at random positions
# notes: Antibody-drug conjugate; also called hD12-vc-XI
# B6: F6B1P3D12 (mouse monoclonal anti-cMET antibody) (antibody, V domains shown)
# VH: QVQLQQSGAELAKPGASVKMSCRASGYTFTSYWMHWVKQRPGQGLDWIGYIKPSTDNTEYNQKFKDKATLTADKSSSTAYMQLSSLTSEDSAVYYCARSYGNYPLMDYWGQGTSVTVSS
# VL: QIVLTQSPAIMSASPGEKVTLTCSASSSVTSNYLYWYQQKPGSSPKLWIYSTSNLASGVPARFSGSGSGTSYSLTISSMEAEDAASYFCHQWSSYPPTFGSGTKLEIKR
# notes: Mouse hybridoma antibody (ATCC PTA-125826); also called Mouse P3D12
# B7: F6B1P1E2 (antibody, V domains shown)
# VH: B6 VH with R23K, D46E, K52N, N57Y, S77T, A97V
# VL: B6 VL with T30S, Q38H, A61V
# notes: Mouse monoclonal antibody
# B8: F6BP2D4 (antibody, V domains shown)
# VH: B6 VH with R23K, D46E, K52N, N57Y, T58I, D73G, Y103F
# VL: B6 VL with T30S, A61V
# notes: Mouse monoclonal antibody
# B9: Chimeric P3D12 (antibody, V domains shown)
# VH: B6 VH
# VL: B6 VL
# notes: Mouse P3D12 variable regions with human constant regions
# B10: G2ckc (humanized P3D12, VH-cdr + VL-cdr) (antibody, V domains shown)
# VH: QVQLVQSGAEVKKPGASVKVSCKASGYTFTSYWMHWVKQAPGQGLDWIGYIKPSTDNTEYNQKFKDKATLTADKSTSTAYMELSSLRSEDTAVYYCARSYGNYPLMDYWGQGTTVTVSS
# VL: QIVLTQSPATLSLSPGERATLSCSASSSVTSNYLYWYQQKPGSSPRLLIYSTSNLASGVPARFSGSGSGTSYTLTISRLEPEDFASYFCHQWSSYPPTFGSGTKLEIKR
# notes: Humanized and isotype switched version of P3D12
# B11: G2fkf (humanized P3D12, VH-fra + VL-fra) (antibody, V domains shown)
# VH: B10 VH with V5Q, A40R, K67R, A68V, E82Q, S85N, R87I, T114S
# VL: B10 VL with T10I, R46K, R78S, P81A, F84A
# notes: as for B10
# B12: G2fkv (humanized P3D12, VH-fra + VL-ven) (antibody, V domains shown)
# VH: B10 VH with V5Q, A40R, K67R, A68V, E82Q, S85N, R87I, T114S
# VL: B10 VL with L11M, L13A, A19V, L48W, L79M, F84A
# notes: as for B10
# B13: G2aka (humanized P3D12, VH-abb/sdr + VL-abb/sdr) (antibody, V domains shown)
# VH: B10 VH with I48M, N61A, K65Q, D66G, K67R, A68V
# VL: B10 VL with S24R, S27Q, S71D
# notes: as for B10
# B14: G2cka (humanized P3D12, VH-cdr + VL-abb/sdr) (antibody, V domains shown)
# VH: B10 VH
# VL: B10 VL with S24R, S27Q, S71D
# notes: as for B10
# B15: G2ckv (humanized P3D12, VH-cdr + VL-ven) (antibody, V domains shown)
# VH: B10 VH
# VL: B10 VL with L11M, L13A, A19V, L48W, L79M, F84A
# notes: as for B10
# B16: G2vkv (humanized P3D12, VH-ven + VL-ven) (antibody, V domains shown)
# VH: B10 VH with K12A, V20M, E82Q
# VL: B10 VL with L11M, L13A, A19V, L48W, L79M, F84A
# notes: as for B10
# B17: G2vka (humanized P3D12, VH-ven + VL-abb/sdr) (antibody, V domains shown)
# VH: B10 VH with K12A, V20M, E82Q
# VL: B10 VL with S24R, S27Q, S71D
# notes: as for B10
# B18: G2akc (humanized P3D12, VH-abb/sdr + VL-cdr) (antibody, V domains shown)
# VH: B10 VH with I48M, N61A, K65Q, D66G, K67R, A68V
# VL: B10 VL
# notes: as for B10
# B19: G2fkc (humanized P3D12, VH-fra + VL-cdr) (antibody, V domains shown)
# VH: B10 VH with V5Q, A40R, K67R, A68V, E82Q, S85N, R87I, T114S
# VL: B10 VL
# notes: as for B10
# B20: G2vkf (humanized P3D12, VH-ven + VL-fra) (antibody, V domains shown)
# VH: B10 VH with K12A, V20M, E82Q
# VL: B10 VL with T10I, R46K, R78S, P81A, F84A
# notes: as for B10
# B21: G2akv (humanized P3D12, VH-abb/sdr + VL-ven) (antibody, V domains shown)
# VH: B10 VH with I48M, N61A, K65Q, D66G, K67R, A68V
# VL: B10 VL with L11M, L13A, A19V, L48W, L79M, F84A
# notes: as for B10
# B22: G2vkc (humanized P3D12, VH-ven + VL-cdr) (antibody, V domains shown)
# VH: B10 VH with K12A, V20M, E82Q
# VL: B10 VL
# notes: as for B10
# B23: G2akf (humanized P3D12, VH-abb/sdr + VL-fra) (antibody, V domains shown)
# VH: B10 VH with I48M, N61A, K65Q, D66G, K67R, A68V
# VL: B10 VL with T10I, R46K, R78S, P81A, F84A
# notes: as for B10
# B24: G2fka (humanized P3D12, VH-fra + VL-abb/sdr) (antibody, V domains shown)
# VH: B10 VH with V5Q, A40R, K67R, A68V, E82Q, S85N, R87I, T114S
# VL: B10 VL with S24R, S27Q, S71D
# notes: as for B10
# B25: ABF46 (antibody, V domains shown)
# VH: EVKLVESGGGLVQPGGSLRLSCATSGFTFTDYYMSWVRQPPGKALEWLGFIRNKANGYTTEYSASVKGRFTISRDNSQSILYLQMDTLRAEDSATYYCARDNWFAYWGQGTLVTVSA
# VL: DILMTQSPSSLTVSAGEKVTMSCKSSQSLLASGNQNNYLAWHQQKPGRSPKMLIIWASTRVSGVPDRFIGSGSGTDFTLTINSVQAEDLAVYYCQQSYSAPLTFGAGTKLELK
# Key:
# [1] = target: T1, Recombinant Human c-Met-10X His (human, UniProt P08581 25-932); experiment: ELISA, plate-bound human cMET (FIGS. 17A, 17B)
# T1 construct: In-house reagent (Lot #140924TA); not shown: 10X His tag
# Excerpt: Relative binding strength is indicated by luminescence (y-axis).
# [2] = target: T2, human cMET-Fc fusion protein (extracellular domain of human cMET fused to human Fc) (human, UniProt P08581 25-932); experiment: SPR, hMET-Fc
# T2 construct: Mature cMET is cleaved into alpha and beta subunits; also called hMET-Fc; hMet-Fc
# rat cMET-Fc = target: T3, rat cMET-Fc (rat, UniProt P97523 25-935); experiment: SPR, rMET-Fc
# T3 construct: Construct named only as rMET-Fc; also called rMET-Fc; not shown: Fc part
# [3] = target: T2, human cMET-Fc fusion protein …; experiment: SPR with hMet-Fc
# [4] = target: mouse cMET (ELISA antigen) (mouse, UniProt P16056 25-931, limits assumed); experiment: ELISA, cross-reactivity, mouse cMET
# rat cMET (ELISA antigen) = target: T4, rat cMET (ELISA antigen) (rat, UniProt P97523 25-935, limits assumed); experiment: ELISA on rat cMET, relative to parental P3D12
# T4 construct: also called rMET
# [5] = target: T5, human cMET (ELISA antigen) (human, UniProt P08581 25-932, limits assumed); experiment: ELISA on human cMET, relative to parental P3D12
# T5 construct: also called hMET
# T5 sequence (P08581 25-932 limits assumed): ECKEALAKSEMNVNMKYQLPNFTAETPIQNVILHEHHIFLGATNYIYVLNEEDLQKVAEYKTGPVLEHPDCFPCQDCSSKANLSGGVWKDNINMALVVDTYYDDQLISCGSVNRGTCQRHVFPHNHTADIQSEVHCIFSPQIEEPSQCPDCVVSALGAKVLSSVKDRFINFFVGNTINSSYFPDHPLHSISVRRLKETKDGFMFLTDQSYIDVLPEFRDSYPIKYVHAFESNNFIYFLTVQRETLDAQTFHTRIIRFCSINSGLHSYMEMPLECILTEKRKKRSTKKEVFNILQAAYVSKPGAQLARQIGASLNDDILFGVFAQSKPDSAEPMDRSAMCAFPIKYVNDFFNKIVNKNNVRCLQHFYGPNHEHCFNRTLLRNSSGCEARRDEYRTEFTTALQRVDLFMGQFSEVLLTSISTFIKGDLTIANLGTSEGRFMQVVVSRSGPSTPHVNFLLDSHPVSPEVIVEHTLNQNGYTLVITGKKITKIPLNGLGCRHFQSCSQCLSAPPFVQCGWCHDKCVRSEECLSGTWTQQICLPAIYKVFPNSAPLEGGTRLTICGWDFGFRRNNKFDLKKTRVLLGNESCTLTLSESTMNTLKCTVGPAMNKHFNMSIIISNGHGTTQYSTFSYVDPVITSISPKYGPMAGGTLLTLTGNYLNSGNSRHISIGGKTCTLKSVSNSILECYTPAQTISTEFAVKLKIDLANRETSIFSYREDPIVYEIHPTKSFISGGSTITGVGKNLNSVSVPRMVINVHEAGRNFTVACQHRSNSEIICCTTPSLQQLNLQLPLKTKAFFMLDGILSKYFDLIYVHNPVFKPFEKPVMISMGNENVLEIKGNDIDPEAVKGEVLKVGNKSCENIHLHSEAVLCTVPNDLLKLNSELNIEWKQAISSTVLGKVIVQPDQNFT
# T3 sequence (P97523 25-935 limits assumed): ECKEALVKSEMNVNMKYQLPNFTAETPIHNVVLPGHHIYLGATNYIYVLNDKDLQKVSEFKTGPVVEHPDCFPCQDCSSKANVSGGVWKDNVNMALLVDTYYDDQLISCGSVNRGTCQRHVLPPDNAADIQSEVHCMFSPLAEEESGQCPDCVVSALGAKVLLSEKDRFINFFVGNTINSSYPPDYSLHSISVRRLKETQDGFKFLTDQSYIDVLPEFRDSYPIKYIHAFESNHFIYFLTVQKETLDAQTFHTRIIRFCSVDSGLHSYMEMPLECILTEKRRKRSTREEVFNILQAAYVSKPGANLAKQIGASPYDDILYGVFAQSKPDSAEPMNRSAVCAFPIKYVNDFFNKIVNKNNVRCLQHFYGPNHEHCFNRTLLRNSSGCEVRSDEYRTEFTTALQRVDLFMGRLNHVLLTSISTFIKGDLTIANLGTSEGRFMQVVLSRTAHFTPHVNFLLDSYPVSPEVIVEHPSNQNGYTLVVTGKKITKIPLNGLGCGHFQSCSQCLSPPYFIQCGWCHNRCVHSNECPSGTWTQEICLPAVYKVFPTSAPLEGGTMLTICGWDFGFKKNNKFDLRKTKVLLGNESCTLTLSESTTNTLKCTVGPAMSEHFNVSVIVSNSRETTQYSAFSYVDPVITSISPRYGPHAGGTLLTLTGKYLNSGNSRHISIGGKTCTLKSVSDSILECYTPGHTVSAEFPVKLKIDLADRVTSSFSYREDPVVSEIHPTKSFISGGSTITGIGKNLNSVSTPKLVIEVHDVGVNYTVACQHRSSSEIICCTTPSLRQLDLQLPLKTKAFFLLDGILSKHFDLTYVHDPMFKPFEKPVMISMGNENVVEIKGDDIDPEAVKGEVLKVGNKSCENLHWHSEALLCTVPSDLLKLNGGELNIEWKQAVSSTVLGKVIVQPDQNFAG
# T4 sequence (P97523 25-935 limits assumed): as above
# Chain of mouse cMET (ELISA antigen) (P16056 25-931 limits assumed): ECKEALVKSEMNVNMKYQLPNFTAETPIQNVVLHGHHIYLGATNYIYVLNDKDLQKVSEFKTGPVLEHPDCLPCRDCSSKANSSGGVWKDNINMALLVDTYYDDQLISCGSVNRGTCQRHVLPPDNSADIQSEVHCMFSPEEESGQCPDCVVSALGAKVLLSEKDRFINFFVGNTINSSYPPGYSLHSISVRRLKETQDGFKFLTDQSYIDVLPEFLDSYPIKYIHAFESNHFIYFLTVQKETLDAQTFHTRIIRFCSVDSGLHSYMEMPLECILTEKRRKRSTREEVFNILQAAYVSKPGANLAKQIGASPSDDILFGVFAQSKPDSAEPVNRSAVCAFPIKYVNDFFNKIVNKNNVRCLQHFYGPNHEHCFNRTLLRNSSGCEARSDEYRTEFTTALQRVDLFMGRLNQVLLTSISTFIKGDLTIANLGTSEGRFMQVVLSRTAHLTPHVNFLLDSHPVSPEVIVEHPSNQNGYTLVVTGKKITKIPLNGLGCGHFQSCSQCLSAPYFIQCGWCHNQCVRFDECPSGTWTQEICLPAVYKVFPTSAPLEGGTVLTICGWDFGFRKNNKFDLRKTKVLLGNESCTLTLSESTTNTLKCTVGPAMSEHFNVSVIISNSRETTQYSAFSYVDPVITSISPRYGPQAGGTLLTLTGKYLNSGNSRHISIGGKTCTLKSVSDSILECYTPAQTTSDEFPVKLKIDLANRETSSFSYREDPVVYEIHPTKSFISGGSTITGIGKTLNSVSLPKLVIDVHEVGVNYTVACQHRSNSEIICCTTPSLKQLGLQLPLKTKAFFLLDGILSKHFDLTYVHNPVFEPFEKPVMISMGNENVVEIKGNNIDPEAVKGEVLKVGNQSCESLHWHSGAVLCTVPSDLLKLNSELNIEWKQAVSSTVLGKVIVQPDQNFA
# T1 sequence (P08581 25-932 limits assumed): as the sequence (P08581 25-932 limits assumed) above
# T2 sequence (P08581 25-932): as the sequence (P08581 25-932 limits assumed) above
Binder,Kd [2],Kd (rat cMET-Fc),ELISA rMET vs parental (rat cMET (ELISA antigen)),ELISA hMET vs parental [5],other results
B1,–,–,–,–,binding result [1]: binds
B2,–,–,–,–,binding result [1]: binds
B3,–,–,–,–,binding result [1]: binds
B4,–,–,–,–,binding result [1]: binds
B5,–,–,–,–,binding result [1]: binds
B6,0.9 nM,16 nM,–,–,Kd [3]: 0.75 nM; binding result [4]: no binding
B7,–,–,–,–,Kd [3]: 0.89 nM; binding result [4]: no binding
B8,–,–,–,–,Kd [3]: 0.48 nM; binding result [4]: no binding
B9,0.7 nM,30 nM,–,–,–
B10,0.9 nM,31 nM,2 fold vs parental,1 fold vs parental,–
B11,0.4 nM,30 nM,1.4 fold vs parental,1.7 fold vs parental,–
B12,–,–,1.2 fold vs parental,1.7 fold vs parental,–
B13,0.9 nM,26 nM,1.1 fold vs parental,0.9 fold vs parental,–
B14,0.4 nM,29 nM,2.7 fold vs parental,1.3 fold vs parental,–
B15,–,–,1 fold vs parental,1.1 fold vs parental,–
B16,–,–,1.6 fold vs parental,1.6 fold vs parental,–
B17,–,–,2.7 fold vs parental,0.9 fold vs parental,–
B18,0.7 nM,38 nM,0.7 fold vs parental,1.3 fold vs parental,–
B19,–,–,2.3 fold vs parental,1.7 fold vs parental,–
B20,0.3 nM,8 nM,1 fold vs parental,1.1 fold vs parental,–
B21,–,–,1.3 fold vs parental,1.6 fold vs parental,–
B22,–,–,1.9 fold vs parental,1.1 fold vs parental,–
B23,0.6 nM,23 nM,0.5 fold vs parental,1 fold vs parental,–
B24,–,–,3.8 fold vs parental,1.8 fold vs parental,–
B25,–,–,–,–,Kd [3]: 0.7 nM
